In PMC8456102 one finds inhibition of the protease activity of nTyr-p3 on the substrate TAME (OD 405 nm; sample pretreated with 10 mM inhibitor for 60 min data, which are given here for one substance.

This test deals with native Tyr-p3 (group 3 allergen of Tyrophagus putrescentiae) (Tyrophagus putrescentiae) (UniProt C6ZDB5).
UniProt C6ZDB5, sequence (C6ZDB5 34-285): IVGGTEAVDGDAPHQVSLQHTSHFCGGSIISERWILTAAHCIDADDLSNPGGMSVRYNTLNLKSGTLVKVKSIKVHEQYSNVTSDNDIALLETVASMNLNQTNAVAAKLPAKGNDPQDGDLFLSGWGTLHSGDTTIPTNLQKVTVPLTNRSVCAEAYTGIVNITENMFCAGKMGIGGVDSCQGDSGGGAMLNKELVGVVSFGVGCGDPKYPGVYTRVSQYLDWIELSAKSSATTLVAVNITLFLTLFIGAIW

Turning to “soybean trypsin inhibitor (from UniProt P01070 25-205) (natural protein)”, the inhibition of the protease activity of nTyr-p3 on the substrate TAME (OD 405 nm; sample pretreated with 10 mM inhibitor for 60 min at 25°C) stood at 88%.
